Measurements reported in patent US20100080806A1 (INSTITUTE OF BASIC MEDICAL SCIENCES OF CHINESE ACADEMY OF …, published 2010).

Tests used:
[1] = target: T1, recombinant human DR4 extracellular domain protein expressed in E. coli (human, UniProt O00220 24-239); assay: ELISA, plate coated with recombinant DR4 extracellular domain
T1 construct: extracellular domain; also called death receptor 4; TRAIL-R1
Method: (§1) ELISA plates (Costar, USA) were coated with recombinant human DR4 or DR5 extracellular domain protein expressed in E. coli over night, blocked with 5% nonfat milk at room temperature for two hours. […] The absorbency at 492 nm was measured on a microtiter reader of enzyme-labelled machine, Wellscan MK3 (Thermo Labsystems, Finland).

[2] = target: T2, recombinant human DR5 extracellular domain protein expressed in E. coli (human, UniProt O14763 56-210); assay: ELISA on plate-coated recombinant DR5 extracellular domain, single-site fit (GraphPad)
T2 construct: extracellular domain; also called death receptor 5; TRAIL-R2
Method: as §1

T1 sequence (O00220 24-239): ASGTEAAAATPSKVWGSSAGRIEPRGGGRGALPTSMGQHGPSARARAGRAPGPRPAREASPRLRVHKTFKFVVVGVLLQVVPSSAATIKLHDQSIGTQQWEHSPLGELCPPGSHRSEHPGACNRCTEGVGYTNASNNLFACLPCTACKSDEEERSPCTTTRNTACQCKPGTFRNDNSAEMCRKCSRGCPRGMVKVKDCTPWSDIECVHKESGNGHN

B1: monoclonal antibody AD5-10 against human TRAIL receptor DR5 (antibody, IgG3, V domains shown)
VH: QIQLVQSGPELKKPGETVKISCKASGYTFTDFSMNWVKQAPGKGLKWMGWINTETGEPTYADDFKGRFALSMETSASTAYLQINNLKNEDTATYFCVRIDYWGQGTTLTVSS
VL: DVVMTQTPLSLPVSLGDQASISCRSSQSLVHSNGNTYLHWYLQKPGQSPKLLIYKVSNRFSGVPDRFSGSGSGTDFTLKISRVEAEDLGVYFCFQSTHVPHTFGGGTKLEIKR
notes: Murine hybridoma antibody (CGMCC 1192), subtype IgG3 kappa; also called anti-human TRAIL receptor DR5 mAb; mAb DR5
In the case of B1, the binding result [1] is reported as “no binding” and the Kd [2] is reported as 0.3 nM.
